The source of these data is patent US20040219615A1 (YEDA RESEARCH AND DEVELOPMENT, published 2004).

The chains are these.
B5: clone #84 (other, UniProt Q99675 1-332, looked up)
chain: MAAVFLVTLYEYSPLFYIAVVFTCFIVTTGLVLGWFGWDVPVILRNSEETQFSTRVFKKQMRQVKNPFGLEITNPSSASITTGITLTTDCLEDSLLTCYWGCSVQKLYEALQKHVYCFRISTPQALEDALYSEYLYQEQYFIKKDSKEEIYCQLPRDTKIEDFGTVPRSRYPLVALLTLADEDDREIYDIISMVSVIHIPDRTYKLSCRILYQYLLLAQGQFHDLKQLFMSANNNFTPSNNSSSEEKNTDRSLLEKVGLSESEVEPSEENSKDCVVCQNGTVNWVLLPCRHTCLCDGCVKYFQQCPMCRQFVQESFALCSQKEQDKDKPKTL
notes: Isolated from the B-cell cDNA library with full-length RAP-2 as bait; The whole CGR19 entry is named; also called CGR19; Cell Growth Regulatory protein CGR19

Assay [1] has as its target T1, RAP-2 (RIP-associated protein-2), full-length (human, UniProt Q9Y6K9 1-419).
T1 construct: Full-length RAP-2; The RIP screen first yielded a partial clone of about 1.5 Kb; also called 303; RAP-303
As to the kind of experiment: binding assay tests (two-hybrid).

In assay [2] the target is T2, TIP60 (histone acetyltransferase) (UniProt Q92993 1-513, limits assumed). As to the kind of experiment: deletion analysis of RAP-2.
The assay “clone #84” concerns the target B5. As to the kind of experiment: yeast two-hybrid test.
The target in the next assay is T3, TRAF2 (UniProt Q12933 1-501, limits assumed).
T3 sequence (looked up): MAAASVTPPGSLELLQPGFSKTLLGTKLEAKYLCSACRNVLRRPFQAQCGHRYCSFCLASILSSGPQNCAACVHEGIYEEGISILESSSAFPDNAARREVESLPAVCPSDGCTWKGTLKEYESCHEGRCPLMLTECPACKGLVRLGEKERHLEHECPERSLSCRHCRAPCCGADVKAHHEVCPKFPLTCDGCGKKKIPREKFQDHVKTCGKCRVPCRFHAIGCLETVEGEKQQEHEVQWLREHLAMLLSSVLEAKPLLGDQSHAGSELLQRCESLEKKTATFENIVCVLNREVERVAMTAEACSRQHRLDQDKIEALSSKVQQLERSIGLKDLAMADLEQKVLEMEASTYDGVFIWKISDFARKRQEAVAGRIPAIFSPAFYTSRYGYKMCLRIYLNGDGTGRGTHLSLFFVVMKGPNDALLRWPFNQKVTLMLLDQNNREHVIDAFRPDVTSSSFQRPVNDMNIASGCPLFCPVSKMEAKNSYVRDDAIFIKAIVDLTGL
In words: yeast two-hybrid test.

The target of assay [3] is T4, RIP (receptor interacting protein) (human, UniProt Q13546 1-671).
T4 construct: mature; Full-length RIP was the two-hybrid bait; In co-immunoprecipitation it was pulled down with anti-FLAG mAbs (FLAG tag implied); also called RIP protein
T4 sequence (looked up): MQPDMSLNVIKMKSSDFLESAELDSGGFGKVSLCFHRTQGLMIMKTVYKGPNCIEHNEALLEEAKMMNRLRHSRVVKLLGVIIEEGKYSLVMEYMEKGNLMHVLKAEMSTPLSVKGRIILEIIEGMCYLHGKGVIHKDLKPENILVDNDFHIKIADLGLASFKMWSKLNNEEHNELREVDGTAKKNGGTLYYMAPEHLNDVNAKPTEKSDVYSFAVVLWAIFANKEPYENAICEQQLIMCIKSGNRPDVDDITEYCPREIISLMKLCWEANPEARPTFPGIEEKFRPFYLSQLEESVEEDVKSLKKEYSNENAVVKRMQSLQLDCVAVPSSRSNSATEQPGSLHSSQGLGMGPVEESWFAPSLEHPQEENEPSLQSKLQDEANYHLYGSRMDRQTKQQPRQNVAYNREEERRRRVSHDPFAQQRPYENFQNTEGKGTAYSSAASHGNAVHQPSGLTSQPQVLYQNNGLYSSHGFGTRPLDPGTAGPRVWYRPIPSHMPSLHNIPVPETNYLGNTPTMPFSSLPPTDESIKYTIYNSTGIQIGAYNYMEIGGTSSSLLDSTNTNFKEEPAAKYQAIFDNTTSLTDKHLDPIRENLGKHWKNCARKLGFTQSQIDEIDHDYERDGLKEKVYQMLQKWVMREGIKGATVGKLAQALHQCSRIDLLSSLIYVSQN
In words: yeast two-hybrid test.

The target of assay [4] is T2, TIP60 (histone acetyltransferase). In words: yeast two-hybrid test.
A further assay has as its target NIK (UniProt Q99558 1-947). As to the kind of experiment: yeast two-hybrid test.
Assay [5] concerns the target T1, RAP-2 (RIP-associated protein-2), …. In words: deletion analysis, self-association of RAP-2.

T2 sequence (Q92993 whole entry): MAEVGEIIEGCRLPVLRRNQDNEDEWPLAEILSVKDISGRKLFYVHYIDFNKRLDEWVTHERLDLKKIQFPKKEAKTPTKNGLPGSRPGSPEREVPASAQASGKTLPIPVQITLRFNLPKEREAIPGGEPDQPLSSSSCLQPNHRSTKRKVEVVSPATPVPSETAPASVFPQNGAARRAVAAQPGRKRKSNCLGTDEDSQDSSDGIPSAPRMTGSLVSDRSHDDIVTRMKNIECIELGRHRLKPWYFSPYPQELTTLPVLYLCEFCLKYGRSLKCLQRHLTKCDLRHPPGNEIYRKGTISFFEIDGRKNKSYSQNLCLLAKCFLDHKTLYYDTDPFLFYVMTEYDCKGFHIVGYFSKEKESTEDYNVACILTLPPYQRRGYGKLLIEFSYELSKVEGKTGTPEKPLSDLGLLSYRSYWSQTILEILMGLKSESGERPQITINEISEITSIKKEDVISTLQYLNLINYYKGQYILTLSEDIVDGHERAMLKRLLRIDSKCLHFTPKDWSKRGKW
Chain of NIK (Q99558 whole entry): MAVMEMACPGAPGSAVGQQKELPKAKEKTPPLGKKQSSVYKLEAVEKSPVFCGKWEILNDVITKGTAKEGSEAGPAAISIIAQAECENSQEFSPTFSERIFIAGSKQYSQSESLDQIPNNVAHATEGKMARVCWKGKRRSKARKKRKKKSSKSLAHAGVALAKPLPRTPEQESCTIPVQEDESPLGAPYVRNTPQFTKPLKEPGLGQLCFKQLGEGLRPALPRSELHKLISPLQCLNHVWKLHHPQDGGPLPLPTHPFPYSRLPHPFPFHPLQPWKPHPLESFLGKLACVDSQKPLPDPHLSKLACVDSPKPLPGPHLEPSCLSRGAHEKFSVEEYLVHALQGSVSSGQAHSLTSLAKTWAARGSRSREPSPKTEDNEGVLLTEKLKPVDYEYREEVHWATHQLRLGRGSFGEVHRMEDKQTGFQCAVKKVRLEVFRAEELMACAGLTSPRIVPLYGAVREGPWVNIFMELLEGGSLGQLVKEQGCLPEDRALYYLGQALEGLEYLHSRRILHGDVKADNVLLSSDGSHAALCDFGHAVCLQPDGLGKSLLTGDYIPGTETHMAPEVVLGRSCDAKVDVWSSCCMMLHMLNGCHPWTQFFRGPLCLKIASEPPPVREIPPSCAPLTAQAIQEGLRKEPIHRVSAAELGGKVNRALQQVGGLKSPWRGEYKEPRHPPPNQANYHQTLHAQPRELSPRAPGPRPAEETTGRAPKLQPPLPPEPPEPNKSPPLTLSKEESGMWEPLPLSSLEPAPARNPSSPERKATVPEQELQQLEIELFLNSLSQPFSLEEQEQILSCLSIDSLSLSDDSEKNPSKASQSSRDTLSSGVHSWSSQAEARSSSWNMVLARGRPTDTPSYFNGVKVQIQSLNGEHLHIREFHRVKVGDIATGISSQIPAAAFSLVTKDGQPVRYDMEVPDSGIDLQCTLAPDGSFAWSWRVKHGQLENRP

B1: p75-R (p75 TNF receptor) (receptor, UniProt P20333 287-461, looked up)
chain: VKKKPLCLQREAKVPHLPADKARGTQGPEQQHLLITAPSSSSSSLESSASALDRRAPTRNQPQAPGVEASGAGEARASTGSSDSSPGGHGTQVNVTCIVNVCSSSDHSSQCSSQASSTMGDTDSSPSESPKDEQVPFSKEECAFRSQLETPETLLGSTEEKPLPLGVPDAGMKPS
With B1, in assay [1], the binding result is on record as “no binding”.

B2: RAP-2 deletion fragment spanning amino acids 95-309 (other)
chain: CKFQEARKLVERLGLEKLDLKRQKEQALREVEHLKRCQQQMAEDKASVKAQVTSLLGELQESQSRLEAATKECQALEGRARAASEQARQLESEREALQQQHSVQVDQLRMQGQSVEAALRMERQAASEEKRKLAQLQVAYHQLFQEYDNHIKSSVVGSERKRGMQLEDLKQQLQQAEEALVAKQEVIDKLKEEAEQHKIVMETVPVLKAQADIYK
For B2, the binding result in assay [2] is reported as “no binding”.

B3: MORT-1 (other, UniProt Q13158 1-208, looked up)
chain: MDPFLVLLHSVSSSLSSSELTELKFLCLGRVGKRKLERVQSGLDLFSMLLEQNDLEPGHTELLRELLASLRRHDLLRRVDDFEAGAAAGAAPGEEDLCAAFNVICDNVGKDWRRLARQLKVSDTKIDSIEDRYPRNLTERVRESLRIWKNTEKENATVAHLVGALRSCQMNLVADLVQEVQQARDLQNRSGAMSPMSWNSDASTSEAS
notes: also called FADD
With B3, the binding result (in assay [1]; with clone #84) was “no binding” throughout.

B4: TRADD (other, UniProt Q15628 1-312, looked up)
chain: MAAGQNGHEEWVGSAYLFVESSLDKVVLSDAYAHPQQKVAVYRALQAALAESGGSPDVLQMLKIHRSDPQLIVQLRFCGRQPCGRFLRAYREGALRAALQRSLAAALAQHSVPLQLELRAGAERLDALLADEERCLSCILAQQPDRLRDEELAELEDALRNLKCGSGARGGDGEVASAPLQPPVPSLSEVKPPPPPPPAQTFLFQGQPVVNRPLSLKDQQTFARSVGLKWRKVGRSLQRGCRALRDPALDSLAYEYEREGLYEQAFQLLRRFVQAEGRRATLQRLVEALEENELTSLAEDLLGLTDPNGGLA
For B4, the binding result (in assay [1]; with clone #84) was “no binding” in each case.

For B5, the binding result (with TRAF2; in assay [3]; in assay [4]; in the assay with NIK) was “no binding” in each case.

B6: RAP-2 deletion fragment containing amino acids 218-416 (other)
chain: QAASEEKRKLAQLQVAYHQLFQEYDNHIKSSVVGSERKRGMQLEDLKQQLQQAEEALVAKQEVIDKLKEEAEQHKIVMETVPVLKAQADIYKADFQAERQAREKLAEKKELLQEQLEQLQREYSKLKASCQESARIEDMRKRHVEVSQAPLPPAPAYLSSPLALPSQRRSPPEEPPDFCCPKCQYQAPDMDTLQIHVME
As to B6, the binding result in assay [5] was “binds”.

B7: p55-R (p55 TNF receptor) (receptor, UniProt P19438 235-455, looked up)
chain: RYQRWKSKLYSIVCGKSTPEKEGELEGTTTKPLAPNPSFSPTPGFTPTLGFSPVPSSTFTSSSTYTPGDCPNFAAPRREVAPPYQGADPILATALASDPIPNPLQKWEDSAHKPQSLDTDDPATLYAVVENVPPLRWKEFVRRLGLSDHEIDRLELQNGRCLREAQYSMLATWRRRTPRREATLELLGRVLRDMDLLGCLEDIEEALCGPAALPPAPSLLR
notes: also called TNFR-I
With B7, the binding result in assay [1] is “no binding”.

B8: RAP-2 deletion fragment containing amino acids 1-264 (other)
chain: MNRHLWKSQLCEMVQPSGGPAADQDVLGEESPLGKPAMLHLPSEQGAPETLQRCLEENQELRDAIRQSNQILRERCEELLHFQASQREEKEFLMCKFQEARKLVERLGLEKLDLKRQKEQALREVEHLKRCQQQMAEDKASVKAQVTSLLGELQESQSRLEAATKECQALEGRARAASEQARQLESEREALQQQHSVQVDQLRMQGQSVEAALRMERQAASEEKRKLAQLQVAYHQLFQEYDNHIKSSVVGSERKRGMQLEDLK
As for B8, in assay [5], the binding result is listed as “binds”.
